Reference: patent US20070244048A1 (published 2007)
Values joined by “and” are separate entries in the source; they are usually repeats but may differ in a detail not shown here. Equal values may be shown once. Non-standard residues stand in square brackets, D forms with d. No end group written: not given here. *: point of attachment. (PEG)2 40 kDa = branched PEG of 40 kDa linked via the Cys side-chain thiol (code C2 = Cys(PEG)2 40 kDa); Cholesteroyl = cholesterol linked to a cysteine residue via the side-chain thiol; Succinimide(1-Et,3-yl) = CCN1C(=O)CC(*)C1=O; Palmitoyl = CCCCCCCCCCCCCCCC(=O)*

T1: mouse NMUR1-CTG (mouse, UniProt O55040 1-428)
T1 sequence (looked up): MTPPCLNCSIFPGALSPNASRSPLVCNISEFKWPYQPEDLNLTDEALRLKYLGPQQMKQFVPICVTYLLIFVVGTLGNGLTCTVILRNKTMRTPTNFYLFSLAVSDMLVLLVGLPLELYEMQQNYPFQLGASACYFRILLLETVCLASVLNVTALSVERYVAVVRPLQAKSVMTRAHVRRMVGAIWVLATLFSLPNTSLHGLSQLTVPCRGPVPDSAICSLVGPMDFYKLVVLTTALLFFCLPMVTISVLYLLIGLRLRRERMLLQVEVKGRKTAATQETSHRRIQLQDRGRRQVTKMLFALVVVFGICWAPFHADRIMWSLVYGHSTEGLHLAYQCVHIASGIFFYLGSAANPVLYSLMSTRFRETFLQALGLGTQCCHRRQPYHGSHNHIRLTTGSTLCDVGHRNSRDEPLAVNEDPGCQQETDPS

T2: mouse NMUR1-ATG (mouse, UniProt O55040 1-428)
T2 sequence (looked up): T1 sequence (looked up)

T3: human NMUR1 (human, UniProt Q9HB89 1-426)
T3 sequence (looked up): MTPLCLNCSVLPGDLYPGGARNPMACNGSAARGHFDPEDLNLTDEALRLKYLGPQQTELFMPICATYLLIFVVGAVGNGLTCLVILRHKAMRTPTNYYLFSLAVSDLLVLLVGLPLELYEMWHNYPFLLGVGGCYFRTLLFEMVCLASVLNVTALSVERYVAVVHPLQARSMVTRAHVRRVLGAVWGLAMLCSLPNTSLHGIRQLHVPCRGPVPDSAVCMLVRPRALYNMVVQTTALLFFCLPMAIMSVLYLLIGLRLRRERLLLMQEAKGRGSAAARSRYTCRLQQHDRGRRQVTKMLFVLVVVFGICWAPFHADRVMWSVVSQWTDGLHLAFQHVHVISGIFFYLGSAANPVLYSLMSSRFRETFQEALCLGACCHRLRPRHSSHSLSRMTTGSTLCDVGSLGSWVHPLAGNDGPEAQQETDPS

T4: rat NMUR1-ATG (rat, UniProt Q9JJI5 1-425)
T4 sequence (looked up): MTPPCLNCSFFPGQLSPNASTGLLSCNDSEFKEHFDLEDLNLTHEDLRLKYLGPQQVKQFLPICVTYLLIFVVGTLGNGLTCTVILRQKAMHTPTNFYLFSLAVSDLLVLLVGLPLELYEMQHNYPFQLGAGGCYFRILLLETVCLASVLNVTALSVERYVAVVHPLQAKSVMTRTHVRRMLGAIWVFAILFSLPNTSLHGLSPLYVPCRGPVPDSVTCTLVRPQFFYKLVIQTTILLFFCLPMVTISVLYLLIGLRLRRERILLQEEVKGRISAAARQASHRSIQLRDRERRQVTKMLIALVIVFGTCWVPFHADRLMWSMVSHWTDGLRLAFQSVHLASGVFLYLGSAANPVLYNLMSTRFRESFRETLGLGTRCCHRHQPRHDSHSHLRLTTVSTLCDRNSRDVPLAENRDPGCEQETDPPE

T5: rat NMUR1-TTG (rat, UniProt Q9JJI5 1-425)
T5 sequence (looked up): T4 sequence (looked up)

B1: NMU6 (peptide)
peptide: Ac-C(Succinimide(1-Et,3-yl))GYFLFRPRN-NH2
SMILES: CCN1C(=O)CC(SC[C@H](NC(C)=O)C(=O)NCC(=O)N[C@@H](Cc2ccc(O)cc2)C(=O)N[C@@H](Cc2ccccc2)C(=O)N[C@@H](CC(C)C)C(=O)N[C@@H](Cc2ccccc2)C(=O)N[C@@H](CCCNC(=N)N)C(=O)N2CCC[C@H]2C(=O)N[C@@H](CCCNC(=N)N)C(=O)N[C@@H](CC(N)=O)C(N)=O)C1=O

Columns and labels:
Test in all cases: cell-based or functional assay
mouse NMUR1-CTG = biological target: T1, mouse NMUR1-CTG
mouse NMUR2 = mouse NMUR2 (mouse, UniProt Q8BZ39 1-395)
mouse NMUR1-ATG = biological target: T2, mouse NMUR1-ATG
human NMUR1 = biological target: T3, human NMUR1
human NMUR2 = human NMUR2 (human, UniProt Q9GZQ4 1-415)
rat NMUR1-ATG = biological target: T4, rat NMUR1-ATG
rat NMUR2 = rat NMUR2 (rat, UniProt Q9ESQ4 1-395)
rat NMUR1-TTG = biological target: T5, rat NMUR1-TTG

Chain of rat NMUR2 (Q9ESQ4 whole entry): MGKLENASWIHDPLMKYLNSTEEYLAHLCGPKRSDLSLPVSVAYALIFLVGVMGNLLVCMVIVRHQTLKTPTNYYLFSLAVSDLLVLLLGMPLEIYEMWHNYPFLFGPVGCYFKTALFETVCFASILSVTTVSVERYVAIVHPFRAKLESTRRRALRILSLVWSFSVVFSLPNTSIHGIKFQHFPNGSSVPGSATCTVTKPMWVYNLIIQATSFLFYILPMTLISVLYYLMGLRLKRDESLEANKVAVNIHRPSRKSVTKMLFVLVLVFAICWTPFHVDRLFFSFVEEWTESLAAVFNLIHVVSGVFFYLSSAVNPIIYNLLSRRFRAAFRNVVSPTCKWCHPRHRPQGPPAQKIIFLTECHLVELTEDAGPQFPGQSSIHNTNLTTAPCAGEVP
Chain of human NMUR2 (Q9GZQ4 whole entry): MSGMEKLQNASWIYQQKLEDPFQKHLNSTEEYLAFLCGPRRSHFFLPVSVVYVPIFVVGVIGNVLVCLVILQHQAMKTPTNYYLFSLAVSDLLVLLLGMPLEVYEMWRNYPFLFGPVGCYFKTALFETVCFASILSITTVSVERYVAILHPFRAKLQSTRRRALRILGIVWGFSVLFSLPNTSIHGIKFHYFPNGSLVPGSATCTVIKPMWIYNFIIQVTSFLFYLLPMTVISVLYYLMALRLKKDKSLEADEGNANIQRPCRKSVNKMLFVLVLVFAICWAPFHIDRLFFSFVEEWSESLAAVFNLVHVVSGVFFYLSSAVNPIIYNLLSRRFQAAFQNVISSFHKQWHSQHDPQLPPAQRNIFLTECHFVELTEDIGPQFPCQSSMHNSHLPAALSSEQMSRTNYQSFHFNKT
Chain of mouse NMUR2 (Q8BZ39 whole entry): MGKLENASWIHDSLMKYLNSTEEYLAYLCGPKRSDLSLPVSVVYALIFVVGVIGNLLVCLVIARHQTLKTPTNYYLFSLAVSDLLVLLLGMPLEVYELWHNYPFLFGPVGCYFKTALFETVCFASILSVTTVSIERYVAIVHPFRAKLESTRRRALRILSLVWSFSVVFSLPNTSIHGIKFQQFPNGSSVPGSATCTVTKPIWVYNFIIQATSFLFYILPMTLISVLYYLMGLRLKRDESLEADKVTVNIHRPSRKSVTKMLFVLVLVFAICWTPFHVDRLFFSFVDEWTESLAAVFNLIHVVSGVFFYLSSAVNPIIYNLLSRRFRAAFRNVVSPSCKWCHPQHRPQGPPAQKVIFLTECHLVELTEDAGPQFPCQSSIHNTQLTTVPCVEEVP

Row | Binder | % Activity (FLIPR) (mouse NMUR1-CTG) [%] | EC50 (FLIPR) (mouse NMUR1-CTG) [nM] | % Activity (FLIPR) (mouse NMUR2) [%] | EC50 (FLIPR) (mouse NMUR2) [nM] | % Activity (FLIPR) (mouse NMUR1-ATG) [%] | EC50 (FLIPR) (mouse NMUR1-ATG) [nM] | % Activity (FLIPR) (human NMUR1) [%] | EC50 (FLIPR) (human NMUR1) [nM] | % Activity (FLIPR) (human NMUR2) [%] | EC50 (FLIPR) (human NMUR2) [nM] | % Activity (FLIPR) (rat NMUR1-ATG) [%] | EC50 (FLIPR) (rat NMUR1-ATG) | % Activity (FLIPR) (rat NMUR2) [%] | EC50 (FLIPR) (rat NMUR2) [nM] | % Activity (FLIPR) (rat NMUR1-TTG) [%] | EC50 (FLIPR) (rat NMUR1-TTG) [nM]
1 | GYFLFRPRN-NH2 [NMU3] | 100 | 4.7 | 100 | 1 | 100 | 2.9 | 98.9 | 5.6 | 100 | 1.9 | 100 | 0.7 nM | 100 | 1.8 |  | 
2 | FRVDEEFQSPFASQSRGYFLFRPRN-NH2 (not fully specified (N-terminus)) [NMU1] |  |  | 95.7 | 31 |  |  | 83.7 | 81.4 | 85 | 64.8 | 59.3 | 718 nM | 87.1 | 71.7 |  | 
3 | Ac-C((PEG)2 40 kDa)FRVDEEFQSPFASQSRGYFLFRPRN-NH2 [NMU12] | 68.5 | 407 | 94.1 | 19.1 | 98.4 | 72 | 92.9 | 58.6 | 89 | 119 | 52.7 | 1000 nM | 43.4 | 1000 |  | 
4 | Palmitoyl-C((PEG)2 40 kDa)FRVDEEFQSPFASQSRGYFLFRPRN-NH2 [NMU25] | 100 | 60.3 | 100 | 18.8 | 100 | 10.2 | 83 | 168 | 98.8 | 44.1 | 99.6 | 20.1 nM | 96.4 | 37.8 | 93.5 | 81
5 | Ac-FRVDEEFQSPFASQSRPYFLFRPRN-NH2 [NMU5] | 100 | 11.9 | 100 | 1 | 100 | 3.3 | 98.1 | 6.1 | 98.1 | 2.5 | 100 | 3.6 nM | 100 | 2.3 |  | 
6 | Ac-C((PEG)2 40 kDa)GYFLFRPRN-NH2 [NMU7] |  |  |  |  |  |  | 91.4 | 79.6 | 91.8 | 36.1 |  |  |  |  |  | 
7 | Ac-C(Cholesteroyl)GYFLFRPRN-NH2 [NMU11] | 65 | 600 | 70.5 | 1000 | 81.3 | 1000 | 20.6 | 1000 | 37.3 | 1000 | 50.9 | 316 nM | 33.2 | 1000 |  | 
8 | B1 | 100 | 2 | 100 | 0.7 | 100 | 1 | 96.7 | 3.5 | 100 | 1.5 | 100 | 1 nM | 100 | 1.5 |  | 
9 | Ac-C((PEG)2 40 kDa)FRVDEEFQSPFASQSRGYF[dA]WRPRN-NH2 [NMU14] | 24.8 | > 1000 | 0 | > 1000 | 60.8 | 584 | 95.7 | 104 | 0 | > 1000 |  | 240 nM and 133 nM |  |  | 36.7 | > 1000
10 | Ac-C((PEG)2 40 kDa)FRVDEEFQSPFASQSRGYFLFRPRN-NH2 [NMU9] | 71.7 | 1000 | 100 | 19 | 95 | 45.7 | 94.4 | 50.6 | 94.3 | 91.1 | 100 | 9.7 nM | 100 | 4.5 |  | 
11 | FRVDEEFQSPFASQSRPYFLFRPRN-NH2 [NMU4] | 100 | 11.6 | 100 | 1.2 | 100 | 3.6 | 97 | 7.2 | 100 | 2.6 | 100 | 3.8 nM | 100 | 2.9 |  | 
12 | Ac-FRVDEEFQSPFASQSRGYFLFRPRN-NH2 [NMU2] | 100 | 8.3 | 100 | 1.2 | 100 | 2.1 | 99 | 5.5 | 97.4 | 2.6 | 89.2 | 3.3 nM | 100 | 2.2 |  | 
13 | Ac-C(Cholesteroyl)FRVDEEFQSPFASQSRGYFLFRPRN-NH2 [NMU10] | 69.2 | 1000 | 70.5 | 1000 | 76.8 | 173 | 26.6 | 1000 | 31.3 | 1000 | 80.1 | 201 nM | 97.4 | 41.5 |  | 
